Results reported in publication PMC7026407, “Multiple Growth Factor Targeting by Engineered Insulin-like Growth Factor Binding Protein-3 Augments EGF Receptor Tyrosine Kinase Inhibitor Efficacy” (Scientific Reports, 2020).

What was measured:
IGFBP-3 = molecular target: T1, IGFBP-3 (UniProt P17936 28-291); assay: SPR; IGF binding protein or Fc fusion amine-coupled to a CM4 chip, growth factor as analyte; Biacore T100 or T200, HBS-P, BSA (0.2 mg/ml) or NaCl (0.65 M final) to reduce non-specific binding, 25 °C; 1:1 binding analysis; conditions: both partners purified
T1 construct: source: bought (commercially available, carrier-free)

56662 [1] = molecular target: T2, 56662 (UniProt P17936-1 28-291); assay: as above; conditions: both partners purified
T2 construct: the secretory signal peptide was derived from IGFBP-2; Fc portion of IgG1 added to the C terminus of IGFBP-3; called an Fc dimer; Probably the mature IGFBP-3 after removal of the IGFBP-2 signal peptide; also called IGFBP-3-Fc; BP3-Fc (unmodified IGFBP-3 Fc construct); source: 293 T cells, transfected; conditioned medium purified by proteinA Sepharose; not shown: Fc (IgG1), C-terminal, kept

Chimera A [2] = molecular target: T3, Chimera A; assay: as above; conditions: both partners purified
T3 construct: signal peptide derived from IGFBP-2; VEGF receptor 1 domain 2, first part of VEGF-trap; VEGF receptor 2 domain 3, second part of VEGF-trap; VEGF-trap inserted between the IGFBP-3 and the Fc domain; also called chA; BP3-VEGF-trap-Fc; source: 293 T cells, transfected; conditioned medium purified by proteinA Sepharose; not shown: Fc (IgG1), C-terminal, kept

IGFBP-2 = molecular target: T4, IGFBP-2 (UniProt P18065 36-325); assay: as above; conditions: both partners purified
T4 construct: source: bought (commercially available, carrier-free)
T4 sequence (looked up): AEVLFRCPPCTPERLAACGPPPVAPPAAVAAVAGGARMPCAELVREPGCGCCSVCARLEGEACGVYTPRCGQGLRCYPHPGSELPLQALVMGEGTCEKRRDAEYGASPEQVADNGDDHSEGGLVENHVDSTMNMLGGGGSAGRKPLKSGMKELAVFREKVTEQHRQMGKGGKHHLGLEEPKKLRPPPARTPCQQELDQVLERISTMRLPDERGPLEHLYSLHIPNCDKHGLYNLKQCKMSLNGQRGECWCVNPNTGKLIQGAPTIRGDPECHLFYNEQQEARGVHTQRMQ

IGFBP-7 = molecular target: T5, IGFBP-7 (UniProt Q16270 27-282); assay: as above; conditions: both partners purified
T5 construct: source: bought (commercially available, carrier-free)
T5 sequence (looked up): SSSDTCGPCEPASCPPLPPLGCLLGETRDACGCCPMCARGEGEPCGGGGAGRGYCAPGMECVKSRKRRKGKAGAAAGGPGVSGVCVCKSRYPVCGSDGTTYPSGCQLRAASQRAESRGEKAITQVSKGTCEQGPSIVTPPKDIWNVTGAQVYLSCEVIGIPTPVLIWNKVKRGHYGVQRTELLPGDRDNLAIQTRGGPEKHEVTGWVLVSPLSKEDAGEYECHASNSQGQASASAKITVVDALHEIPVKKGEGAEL

PDGF BB [3] = molecular target: T6, PDGF BB (UniProt P01127 82-190); assay: cell-based or functional assay
T6 sequence (P01127 82-190): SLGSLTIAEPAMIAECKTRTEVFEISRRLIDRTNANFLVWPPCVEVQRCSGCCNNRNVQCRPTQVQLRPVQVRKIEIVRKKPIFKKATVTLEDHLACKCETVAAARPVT

Basic FGF [4] = molecular target: T7, Basic FGF (UniProt P09038 143-288); assay: cell-based or functional assay
T7 sequence (P09038 143-288): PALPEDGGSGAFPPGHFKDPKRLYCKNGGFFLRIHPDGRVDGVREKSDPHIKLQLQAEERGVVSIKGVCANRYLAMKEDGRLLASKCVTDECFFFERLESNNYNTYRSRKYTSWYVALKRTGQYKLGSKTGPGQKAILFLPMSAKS

hepatocyte growth factor [5] = molecular target: T8, hepatocyte growth factor (UniProt P14210 32-728); assay: cell-based or functional assay
T8 sequence (P14210 32-728): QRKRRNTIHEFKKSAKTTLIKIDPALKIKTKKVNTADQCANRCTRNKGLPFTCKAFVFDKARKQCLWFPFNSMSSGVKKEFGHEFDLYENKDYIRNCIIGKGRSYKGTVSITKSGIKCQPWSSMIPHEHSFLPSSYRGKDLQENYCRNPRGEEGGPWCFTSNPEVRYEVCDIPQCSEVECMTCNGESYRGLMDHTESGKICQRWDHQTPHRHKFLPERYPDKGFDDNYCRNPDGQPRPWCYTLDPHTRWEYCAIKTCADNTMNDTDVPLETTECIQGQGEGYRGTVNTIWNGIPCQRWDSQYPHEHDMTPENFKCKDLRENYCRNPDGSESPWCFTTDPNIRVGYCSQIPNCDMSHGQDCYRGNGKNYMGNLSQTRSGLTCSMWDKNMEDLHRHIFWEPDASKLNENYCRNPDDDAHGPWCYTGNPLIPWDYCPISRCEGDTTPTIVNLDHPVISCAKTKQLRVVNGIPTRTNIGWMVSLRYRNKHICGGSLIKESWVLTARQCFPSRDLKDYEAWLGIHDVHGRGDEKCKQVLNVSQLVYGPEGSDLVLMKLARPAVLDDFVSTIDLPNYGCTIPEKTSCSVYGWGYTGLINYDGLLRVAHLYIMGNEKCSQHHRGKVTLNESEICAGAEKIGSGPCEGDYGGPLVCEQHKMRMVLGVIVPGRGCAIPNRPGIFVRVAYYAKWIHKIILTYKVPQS

[6] = molecular target: T9, insulin-like growth factor-1 (UniProt P05019 49-118); assay: cell-based or functional assay
T9 sequence (P05019 49-118): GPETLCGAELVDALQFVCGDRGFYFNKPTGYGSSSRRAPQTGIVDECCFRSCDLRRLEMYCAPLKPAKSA

neuregulin-1 [7] = molecular target: T10, neuregulin-1 (UniProt Q02297 20-241); assay: cell-based or functional assay
T10 sequence (Q02297 20-241): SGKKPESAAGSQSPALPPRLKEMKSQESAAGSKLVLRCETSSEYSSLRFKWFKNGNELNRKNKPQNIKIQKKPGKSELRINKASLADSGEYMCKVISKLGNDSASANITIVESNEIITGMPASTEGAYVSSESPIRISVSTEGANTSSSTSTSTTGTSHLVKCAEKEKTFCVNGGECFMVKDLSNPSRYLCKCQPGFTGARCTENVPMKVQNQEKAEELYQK

PDGF BB [8] = molecular target: T6, PDGF BB; assay: SPR; growth factor immobilised on a CM4 chip instead of the binding protein (asterisk in Table 1), binding protein or Fc fusion as analyte; HBS-P, 25 °C; regeneration with 4 M MgCl2 then 5 M guanidinium chloride; 1:1 binding analysis; conditions: both partners purified
Basic FGF [9] = molecular target: T7, Basic FGF; assay: as above; conditions: both partners purified
hepatocyte growth factor [10] = molecular target: T8, hepatocyte growth factor; assay: as above; conditions: both partners purified
neuregulin-1 [11] = molecular target: T10, neuregulin-1; assay: as above; conditions: both partners purified
VEGF-B = VEGF-B (UniProt P49765 22-207); assay: as above; conditions: both partners purified
[12] = molecular target: T11, insulin-like growth factor-2 (UniProt P01344 25-91); assay: SPR; IGF binding protein or Fc fusion amine-coupled to a CM4 chip, growth factor as analyte; Biacore T100 or T200, HBS-P, BSA (0.2 mg/ml) or NaCl (0.65 M final) to reduce non-specific binding, 25 °C; 1:1 binding analysis; conditions: both partners purified
T11 construct: insulin-like growth factor 2, commercial growth factor; also called IGF2; IGF-2
T11 sequence (P01344 25-91): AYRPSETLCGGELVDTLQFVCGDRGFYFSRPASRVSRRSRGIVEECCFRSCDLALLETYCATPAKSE

[13] = molecular target: T9, insulin-like growth factor-1; assay: as above; conditions: both partners purified
56662 [14] = molecular target: T2, 56662; assay: SPR; growth factor immobilised on a CM4 chip instead of the binding protein (asterisk in Table 1), binding protein or Fc fusion as analyte; HBS-P, 25 °C; regeneration with 4 M MgCl2 then 5 M guanidinium chloride; 1:1 binding analysis; conditions: both partners purified
Chimera A [15] = molecular target: T3, Chimera A; assay: as above; conditions: both partners purified
Target sequence in this assay (Q02297 20-241, stated change not applied): as the sequence (Q02297 20-241) above

B1: VEGF-B (ligand)
chain: PVSQPDAPGHQRKVVSWIDVYTRATCQPREVVVPLTVELMGTVAKQLVPSCVTVQRCGGCCPDDGLECVPTGQHQVRMQILMIRYPSSQLGEMSLEEHSQCECRPKKKDSAVKPDSPRPLCPRCTQHHQRPDPRTCRCRCRRRSFLRCQGRGLELNPDTCRCRKLRR
modifications: Disulfide-linked homodimer. R&D 751-VE taken as the VEGF-B167 isoform; isoform and limits are not printed.
Question: Which Kd (IGFBP-3) does the source give for B1 here?
Answer: The Kd was 16.1 nM.

Question: And the Kd 56662 [1]?
Answer: Its Kd is 14.3 nM.

Question: And the Kd (Chimera A [2])?
Answer: The Kd was 0.49 nM.

Question: And the Kd (IGFBP-2)?
Answer: The Kd was 2.82 nM.

Question: What about the Kd (IGFBP-7) of the same binder?
Answer: Its Kd is 9.88 nM.

B2: D3 (Fc fusion)
chain: GASSAGLGPVVRCEPCDARALAQCAPPPAVCAELVREPGCGCCLTCALSEGQPCGIYTERCGSGLRCQPSPDEARPLQALLDGRGLCVNASAVSRPAPPAPGNASESEEDRSAGSVESPSVSSTHRVSDPKFHPKGHAKVDYESQSTDTQNFSSESKRETEYGPCRREMEDTLNHLKFLNVLSPRGVHIPNCDKKGFYKKKQCRPSKGRKRGFCWCVDKYGQPLPGYTTKGKEDVHCYSMQSK
Question: Which “IC50 of inhibition of PDGF BB-stimulated proliferation, 3T3 cells” value (PDGF BB [3]) does the source give for B2 here?
Answer: Its value is 30 nM.

Question: What about the “IC50 of inhibition of bFGF-stimulated proliferation, HUVEC” value (Basic FGF [4]) of the same binder?
Answer: The value was 39 nM.

Question: What about the “IC50 of inhibition of bFGF-stimulated proliferation, Hep3B cells” value (Basic FGF [4]) of the same binder?
Answer: Its value is 59 nM.

Question: What about the “IC50 of inhibition of bFGF-stimulated proliferation, MCF-7 cells” value (Basic FGF [4]) of the same binder?
Answer: The value was 26 nM.

Question: What about the “IC50 of inhibition of HGF-stimulated proliferation, HUVEC” value (hepatocyte growth factor [5]) of the same binder?
Answer: The value was 56 nM.

Question: And the “IC50 of inhibition of HGF-stimulated proliferation, Hep3B cells” value (hepatocyte growth factor [5])?
Answer: Its value is 58 nM.

Question: What about the “IC50 of inhibition of IGF1-stimulated proliferation, HUVEC” value [6] of the same binder?
Answer: Its value is 7.45 nM.

Question: And the “IC50 of inhibition of IGF1-stimulated proliferation, Hep3B cells” value [6]?
Answer: Its value is 21 nM.

Question: What about the “IC50 of inhibition of IGF1-stimulated proliferation, MCF-7 cells” value [6] of the same binder?
Answer: Its value is 29 nM.

Question: What about the “IC50 of inhibition of NRG-stimulated proliferation, Hep3B cells” value (neuregulin-1 [7]) of the same binder?
Answer: Its value is 43 nM.

Question: And the “IC50 of inhibition of NRG-stimulated proliferation, MCF-7 cells” value (neuregulin-1 [7])?
Answer: The value was 112 nM.

Question: And the Kd (PDGF BB [8])?
Answer: Its Kd is 5.29 nM.

Question: What about the Kd (Basic FGF [9]) of the same binder?
Answer: Its Kd is 3.29 nM.

Question: And the Kd (hepatocyte growth factor [10])?
Answer: Its Kd is 2.63 nM.

Question: What about the Kd (neuregulin-1 [11]) of the same binder?
Answer: The Kd was 2.62 nM.

B3: D3 (Fc fusion)
chain: B2 chain
modifications: Secreted Fc-fusion dimer; Fc omitted. Deletions 121-126, 166-174 and 180-185 are in 56662 precursor numbering (UniProt = construct + 2). The IGFBP-2 signal peptide is removed. / Disulfide-linked …
Question: B3 was tested. Which Kd (VEGF-B) did it give?
Answer: Its Kd is 19.8 nM.

B4: D3 (Fc fusion)
chain: B2 chain
modifications: Secreted Fc-fusion dimer; Fc omitted. Deletions 121-126, 166-174 and 180-185 are in 56662 precursor numbering (UniProt = construct + 2). The IGFBP-2 signal peptide is removed.
Question: For B4, which Kd [12] is on record?
Answer: Its Kd is 0.22 nM.

Question: What about the Kd [13] of the same binder?
Answer: Its Kd is 0.51 nM.

B5: neuregulin-1 (ligand)
chain: SERKEGRGKGKGKKKERGSGKKPESAAGSQSPALPPRLKEMKSQESAAGSKLVLRCETSSEYSSLRFKWFKNGNELNRKNKPQNIKIQKKPGKSELRINKASLADSGEYMCKVISKLGNDSASANITIVESNEIITGMPASTEGAYVSSESPIRISVSTEGANTSSSTSTSTTGTSHLVKCAEKEKTFCVNGGECFMVKDLSNPSRYLCKCPNEFTGDRCQNYVMASFYKHLGIEFMEAEELYQK
modifications: R&D 377-HB, neuregulin extracellular domain, taken as NRG1-beta1 Ser2-Lys246; the paper prints only the catalogue number and 'extracellular domain'.
Question: B5 was tested. Which Kd (IGFBP-3) did it give?
Answer: Its Kd is 2.09 nM.

Question: And the Kd 56662 [1]?
Answer: The Kd was 4.46 nM.

Question: What about the Kd (Chimera A [2]) of the same binder?
Answer: Its Kd is 3.21 nM.

Question: What about the Kd (IGFBP-7) of the same binder?
Answer: Its Kd is 1600 nM.

Question: And the Kd 56662 [14]?
Answer: Its Kd is 4.66 nM.

Question: What about the Kd (Chimera A [15]) of the same binder?
Answer: The Kd was 1.71 nM.
